Reference: patent US20250188167A1
Changes are numbered by the printed parent chain. Like-named read-outs stand apart in the source and are kept apart here. One block for each molecule: values may come before it.

What was measured:
human B7-H3 (human) [1] = target: human B7-H3 (human) (UniProt Q5ZPR3); assay: cell-based or functional assay
human B7-H3 (human) [2] = target: human B7-H3 (human) (UniProt Q5ZPR3); assay: flow cytometry (FACS) on CHO-K1/B7-H3 cells
human B7-H3 (human) [3] = target: human B7-H3 (human) (UniProt Q5ZPR3); assay: flow cytometry (FACS) on CHO-K1 cells expressing human B7-H3; goat anti-human IgG (H+L) secondary
human B7-H3 (human) [4] = target: human B7-H3 (human) (UniProt Q5ZPR3); assay: cell-based or functional assay; remark: listed apart in the source

Chain of UniProt Q5ZPR3 (Q5ZPR3 29-534): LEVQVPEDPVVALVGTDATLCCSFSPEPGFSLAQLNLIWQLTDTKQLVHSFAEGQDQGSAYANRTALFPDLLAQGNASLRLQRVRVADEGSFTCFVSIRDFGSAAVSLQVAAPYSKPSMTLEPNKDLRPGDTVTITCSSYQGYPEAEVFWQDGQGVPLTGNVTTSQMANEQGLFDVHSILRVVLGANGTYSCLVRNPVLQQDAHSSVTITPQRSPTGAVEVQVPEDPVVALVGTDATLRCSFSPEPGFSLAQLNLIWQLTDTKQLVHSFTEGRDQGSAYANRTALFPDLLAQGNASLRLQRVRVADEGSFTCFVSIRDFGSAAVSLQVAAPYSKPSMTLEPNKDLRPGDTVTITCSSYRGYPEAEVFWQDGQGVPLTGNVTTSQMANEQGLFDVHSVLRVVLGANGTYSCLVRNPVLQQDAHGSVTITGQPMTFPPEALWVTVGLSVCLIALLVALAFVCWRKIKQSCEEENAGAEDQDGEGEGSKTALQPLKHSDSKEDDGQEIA

- ADCC % Relative activity (EC50 of positive control MGA-271 / EC50 of sample), plate 01 (human B7-H3 (human) [1]): 100%
- ADCC % Relative activity (EC50 of positive control MGA-271 / EC50 of sample), plate 02 (human B7-H3 (human) [1]): 100%
- ADCC EC50 (% target cell lysis, LDH; NK92/CD16a-VV effector cells), plate 01 (human B7-H3 (human) [1]): 0.0394 µg/mL
- ADCC EC50 (% target cell lysis, LDH; NK92/CD16a-VV effector cells), plate 02 (human B7-H3 (human) [1]): 0.0443 µg/mL
- EC50 (human B7-H3 (human) [2]): 20800 pM
- EC50 (human B7-H3 (human) [3]): 102000 pM
Molecule: MGA271 (Enoblituzumab) (antibody)

- EC50 (human B7-H3 (human) [3]): 81600 pM
Molecule: MGA271-hIgG1 (antibody)

- CDC % Relative activity (EC50 of positive control DS-5573a / EC50 of sample) (human B7-H3 (human) [1]): 100%
- CDC % Relative activity (EC50 of positive control DS-5573a / EC50 of sample), plate 01 (human B7-H3 (human) [1]): 100%
- CDC % Relative activity (EC50 of positive control DS-5573a / EC50 of sample), plate 02 (human B7-H3 (human) [1]): 100%
- CDC EC50 (% target cell lysis, Cell Titer-Glo) (human B7-H3 (human) [1]): 0.69 µg/mL
- CDC EC50 (% target cell lysis, Cell Titer-Glo), plate 01 (human B7-H3 (human) [1]): 0.595 µg/mL
- CDC EC50 (% target cell lysis, Cell Titer-Glo), plate 02 (human B7-H3 (human) [1]): 0.628 µg/mL
Molecule: DS-5573a (antibody)

- CDC % Relative activity (EC50 of positive control DS-5573a / EC50 of sample), plate 01 (human B7-H3 (human) [4]): 104%
- CDC EC50 (% target cell lysis, Cell Titer-Glo), plate 01 (human B7-H3 (human) [4]): 0.57 µg/mL
- EC50 (human B7-H3 (human) [3]): 155 pM
B2: 43H11G12-VH4-VL2 (antibody, human IgG1, kappa, V domains shown)
VH: QVQLVQSGAEVKKPGASVKVSCKASGYNFRDFGMNWVRQAPGQRLEWMGWLNSYSGVPTYADDFKGRVTITRDTSASTAYMELSSLRSEDTAVYYCARDDGYNYTMNYWGQGTLVTVSS
VL: DIVMTQSPLSLPVTPGEPASISCRSSQSLVHSNGITYLHWYLQKPGQSPQLLIYKVSNRFSGVPDRFSGSGSGTDFTLKISRVEAEDVGVYYCSQSTHVPWTFGQGTKVEIKR

- EC50 (human B7-H3 (human) [2]): 751 pM
B4: 47F3F10B4 (antibody, V domains shown)
VH: EVQLQQSGPELVKPGASVKMSCKASGYTFTDHYMHWVKQSHGKSLEWIGYIFPNNGVSGYNQNFKDKATLTVDKSSSTAYMDLRSLTPEDSAVYYCTRRQLGLGTMDYWGQGTSVTVSS
VL: DIVLTQSPASLAVSLGQRATISCRASKSVSTSGYNYMHWYQQKPGQPPKLLIYLASNLESGVPARFSGSGSGTDFTLNIHPVEEEDAATYYCQHSKELPWTFGGGTKLEIK

- CDC % Relative activity (EC50 of positive control DS-5573a / EC50 of sample), plate 02 (human B7-H3 (human) [4]): 445%
- CDC EC50 (% target cell lysis, Cell Titer-Glo), plate 02 (human B7-H3 (human) [4]): 0.141 µg/mL
- EC50 (human B7-H3 (human) [3]): 299 pM
B6: 47F3F10B4-VH1-VL4(IgG1m) (antibody)
heavy: QVQLVQSGAEVKKPGASVKVSCKASGYTFTDHYMHWVRQAPGQGLEWMGYIFPNNGVSGYNQNFKDRVTMTRDTSISTAYMELSRLRSDDTAVYYCARRQLGLGTMDYWGQGTLVTVSSASTKGPSVFPLAPSSKSTSGGTAALGCLVKDYFPEPVTVSWNSGALTSGVHTFPAVLQSSGLYSLSSVVTVPSSSLGTQTYICNVNHKPSNTKVDKRVEPKSCDKTHTCPPCPAPELVGGPSVFLLPPKPKDTLMISRTPEVTCVVVDVSHEDPEVKFNWYVDGVEVHNAKTKPPEEQYNSTLRVVSVLTVLHQDWLNGKEYKCKVSNKALPAPIEKTISKAKGQPREPQVYTLPPSREEMTKNQVSLTCLVKGFYPSDIAVEWESNGQPENNYKTTPLVLDSDGSFFLYSKLTVDKSRWQQGNVFSCSVMHEALHNHYTQKSLSLSPGK
light: DIQMTQSPSSLSASVGDRVTITCRASKSVSTSGYNYMHWYQQKPGKAPKLLIYLASNLESGVPSRFSGSGSGTDFTLTISSLQPEDFATYYCQHSKELPWTFGQGTKVEIKRTVAAPSVFIFPPSDEQLKSGTASVVCLLNNFYPREAKVQWKVDNALQSGNSQESVTEQDSKDSTYSLSSTLTLSKADYEKHKVYACEVTHQGLSSPVTKSFNRGEC

- EC50 (human B7-H3 (human) [3]): 767 pM
B7: 47F3F10B4-VH2-VL4 (antibody, human IgG1, kappa, V domains shown)
VH: QVQLVQSGAEVKKPGASVKVSCKASGYTFTDHYMHWVRQAPGQGLEWMGYIFPNNGVSGYNQNFKDRVTMTRDTSTSTVYMELSSLRSEDTAVYYCARRQLGLGTMDYWGQGTLVTVSS
VL: DIQMTQSPSSLSASVGDRVTITCRASKSVSTSGYNYMHWYQQKPGKAPKLLIYLASNLESGVPSRFSGSGSGTDFTLTISSLQPEDFATYYCQHSKELPWTFGQGTKVEIKR

- EC50 (human B7-H3 (human) [2]): 1780 pM
B9: 38D6A4 (antibody, V domains shown)
VH: QIQLVQSGPELKKPGEAVKISCKASGSTFTDFGMNWVRQAPGKGLKWMGWINPYSGVPTYADEFKGRFVFSLETSARVAYMQINDLKNEDTATYFCARDDGYHYTMDYWGQGTSVTVSS
VL: DVVMTQTPLPLPVSLGDQASISCRSSQSLIHSNGITYLHWYLQKPGQSPKLLIYKVSNRFSGVPDRFTGSGSGTDFTLKISRVEAEDLGVYFCSQSTHVPWTFGGGSKLEIR

- EC50 (human B7-H3 (human) [2]): 6380 pM
B10: 43H11G12 (antibody, V domains shown)
VH: QIQLVQSGPELKKPGETVKISCKASGYNFRDFGMNWVKQAPGKGLKWMGWLNSYSGVPTYADDFKGRFVLSLETSASTAYLQINNLINEDTATYFCGRDDGYNYTMNYWGQGTSVTVSS
VL: B9 VL with T7A, P10S, I30V, K44R, P45A, K50Q, T68S, S107T, R112K

- EC50 (human B7-H3 (human) [2]): 870 pM
B13: 47C7E3 (antibody, V domains shown)
VH: QIQLVQSGPELKKPGETVKISCKASGYTFTNFGMNWVKQAPGKGLKWMGWIYTPSGVPIYADDFKGRFAVSLETSASTAYLQINNLKNEDTATYFCARDDGYYYTMDYWGQGTSVTVSS
VL: B9 VL with V2D, P10S, Q18H, I30V, I35D, T68S, S107T, R112K

- EC50 (human B7-H3 (human) [2]): 651 pM
B15: 38F11B2 (antibody, V domains shown)
VH: QIQLVQSGPELKKPGETVKISCKASGYTFIDYGMNWVKQAPGKGLKWMGWINIYSGVPTYADDFKGRFAFSLETSANTAYLQINNLKNEDTATYFCARDDGYHYTMNYWGQGTSVTVSS
VL: B9 VL with V2I, P10S, I30V, P45S, T68S, D75A, S107T, R112K

Continued, molecule first:

B1: 12C9F1B5-VH4-VL2 (antibody, human IgG1, kappa, V domains shown)
VH: QVQLVQSGAEVKKPGASVKVSCKASGFTNYGMNWVRQAPGQRLEWMGWINPYSGVPTYADDFKGRVTITRDTSASTAYMELSSLRSEDTAVYYCARDDGFHYTMDYWGQGTLVTVSS
VL: B2 VL with S28N, H98L
- CDC % Relative activity (EC50 of positive control DS-5573a / EC50 of sample), plate 01 (human B7-H3 (human) [4]): 155%
- CDC EC50 (% target cell lysis, Cell Titer-Glo), plate 01 (human B7-H3 (human) [4]): 0.384 µg/mL
- EC50 (human B7-H3 (human) [3]): 338 pM

B3: 12C9F1B5-VH2.1-VL2 (antibody, human IgG1, kappa, V domains shown)
VH: B1 VH with R42G, I68M, A74I, S83R, E87D
VL: B2 VL with S28N, H98L
- EC50 (human B7-H3 (human) [3]): 153 pM

B5: 31H11B1 (antibody, V domains shown)
VH: QVQLQQPGAELGKPGTSVKLSCKASGYTFTSYWMHWVKQRPGQGLEWIGHINPNSGSTNQNAKFKNKATLTVDESSSTAYMQLSTLTSEDSAVYYCTRSGSNYRRNYFDYWGQGTTLTVSS
VL: DIQMTQSSSYLSVSLGGRVTITCKASDHINNWLAWYQQKPGNAPRLLISGATSLETGVPSRFSGSGSGKDYTLSITSLQTEDVATYYCQQYWSTPLTFGAGTKLELK
- EC50 (human B7-H3 (human) [2]): 977 pM

B8: 12C9F1B5 (antibody, V domains shown)
VH: QIQLVQSGPELKKPGETVKISCKASGFTNYGMNWVKQAPGKGLKWMGWINPYSGVPTYADDFKGRFAFSLETSASTAYLQINNLKNEDTATYFCARDDGFHYTMDYWGQGTSVTVSS
VL: B9 VL with M4L, P10S, S28N, I30V, T68S, K79T, H98L, S107T, R112K
- EC50 (human B7-H3 (human) [2]): 4760 pM

B11: 37F11A10 (antibody, V domains shown)
VH: B15 VH with Y27D, I30R, D31N, I53P, N77S, Y80F, Y102F, N107D, Q111L
VL: B9 VL with P10S, I30L, I53T, N58H, T68S, S107T
- EC50 (human B7-H3 (human) [2]): 1380 pM

B12: 37D11F5B8 (antibody, V domains shown)
VH: B15 VH with Y27D, I30R, D31N, Y32N, I53P, N77S, Y80F, N107D, Y108F, Q111L
VL: B9 VL with P10S, I30V, I53T, N58H, T68S, S107T, R112K
- EC50 (human B7-H3 (human) [2]): 909 pM

B14: 34A9C12 (antibody, V domains shown)
VH: B8 VH with P14S, M32I, T89S
VL: B9 VL with M4L, T5I, P10S, S28N, I30V, T68S, H98L, S107T, R112K
- EC50 (human B7-H3 (human) [2]): 822 pM
